Measured values from publication PMC6515374, “Virus-Like Particle Facilitated Deposition of Hydroxyapatite Bone Mineral on Nanocellulose after Exposure to Phosphate and Calcium Precursors” (International Journal of Molecular Sciences, 2019).

Biological target: the molecule itself
Assay: transmission electron microscopy; purified VLPs on carbon coated copper grids, stained with 2% uranyl acetate, 80 kV; also confirmed by atomic force microscopy (Figure S1)

B1: Tobacco mosaic virus coat protein subunit with the E50Q and D77N mutations (assembles into TMV virus-like particles) (natural protein, UniProt P69687 1-159, looked up)
chain: MSYSITTPSQFVFLSSAWADPIELINLCTNALGNQFQTQQARTVVQRQFSQVWKPSPQVTVRFPDSDFKVYRYNAVLNPLVTALLGAFDTRNRIIEVENQANPTTAETLDATRRVDDATVAIRSAINNLIVELIRGTGSYNRSSFESSSGLVWTSGPAT
notes: Tobacco mosaic virus coat protein, codon optimized for bacterial expression, in pET-21a(+) at NdeI/XhoI with a stop codon to prevent fusion to the His tag; No tag: a stop codon stands before the vector's His tag; Assembles without viral RNA into rods of 18 nm diameter and variable length; also called TMV VLPs; TMV CP; source: E. coli BL21(DES)pLysS, purified (chloroform, PEG 8000/NaCl …)
B1: binds.
